We go through 3 sequences from the supplement of paper PMC6379048.

What all share (assay): EC50 of free RNA motif oligo competing protein binding to immobilised probe
One data set deals with T1, SF3B5 (UniProt Q9BWJ5).
T1 sequence: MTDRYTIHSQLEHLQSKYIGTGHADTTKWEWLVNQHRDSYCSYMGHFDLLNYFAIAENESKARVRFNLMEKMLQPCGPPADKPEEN
An outline of the steps: (§1)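 Kd was calculated as EC50, taken from a four-parameter log-logistic fit, multiplied by a protein-dependent depletion factor. The assay used HEK293-FT lysate (2.5 mg protein/well) pre-incubated for 1 h at 4°C with free RNA oligos (0 nM to 30 μM), then incubated for 30 min at 4°C with the matching oligos bound through a 5′-amino-C6 linker to NHS-Sepharose beads. Bound proteins were measured by label-free LC-MS/MS and normalised to the control.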

The target in a further data set is SRSF10 (UniProt O75494). An outline of the steps: as §1
Sequence of SRSF10 (O75494 whole entry): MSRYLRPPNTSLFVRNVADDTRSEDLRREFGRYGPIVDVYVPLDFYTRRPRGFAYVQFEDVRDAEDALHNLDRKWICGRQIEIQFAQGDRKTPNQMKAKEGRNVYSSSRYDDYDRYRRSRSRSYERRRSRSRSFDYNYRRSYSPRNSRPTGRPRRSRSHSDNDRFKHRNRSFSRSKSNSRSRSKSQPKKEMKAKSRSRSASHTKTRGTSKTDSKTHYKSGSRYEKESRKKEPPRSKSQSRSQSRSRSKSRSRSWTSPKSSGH
Another data set concerns the target T2, PUF60 (UniProt Q9UHX1).
T2 sequence: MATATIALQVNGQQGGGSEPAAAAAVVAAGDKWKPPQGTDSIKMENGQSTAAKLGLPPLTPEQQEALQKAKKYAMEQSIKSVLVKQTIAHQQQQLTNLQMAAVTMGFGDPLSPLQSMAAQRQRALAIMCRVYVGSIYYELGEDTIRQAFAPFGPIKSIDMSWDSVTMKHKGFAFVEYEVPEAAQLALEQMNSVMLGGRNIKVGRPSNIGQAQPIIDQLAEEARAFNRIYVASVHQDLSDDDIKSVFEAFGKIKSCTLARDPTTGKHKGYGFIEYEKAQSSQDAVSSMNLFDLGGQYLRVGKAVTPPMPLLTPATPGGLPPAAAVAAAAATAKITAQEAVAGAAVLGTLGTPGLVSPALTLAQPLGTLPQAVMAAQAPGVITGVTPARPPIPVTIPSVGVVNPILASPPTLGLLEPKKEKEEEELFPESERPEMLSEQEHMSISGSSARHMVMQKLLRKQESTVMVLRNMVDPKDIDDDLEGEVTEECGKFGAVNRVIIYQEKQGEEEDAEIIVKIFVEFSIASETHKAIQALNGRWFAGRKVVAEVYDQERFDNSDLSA
An outline of the steps: as §1

Another data set concerns the target T3, DHX30 (UniProt Q7L2E3).
T3 sequence: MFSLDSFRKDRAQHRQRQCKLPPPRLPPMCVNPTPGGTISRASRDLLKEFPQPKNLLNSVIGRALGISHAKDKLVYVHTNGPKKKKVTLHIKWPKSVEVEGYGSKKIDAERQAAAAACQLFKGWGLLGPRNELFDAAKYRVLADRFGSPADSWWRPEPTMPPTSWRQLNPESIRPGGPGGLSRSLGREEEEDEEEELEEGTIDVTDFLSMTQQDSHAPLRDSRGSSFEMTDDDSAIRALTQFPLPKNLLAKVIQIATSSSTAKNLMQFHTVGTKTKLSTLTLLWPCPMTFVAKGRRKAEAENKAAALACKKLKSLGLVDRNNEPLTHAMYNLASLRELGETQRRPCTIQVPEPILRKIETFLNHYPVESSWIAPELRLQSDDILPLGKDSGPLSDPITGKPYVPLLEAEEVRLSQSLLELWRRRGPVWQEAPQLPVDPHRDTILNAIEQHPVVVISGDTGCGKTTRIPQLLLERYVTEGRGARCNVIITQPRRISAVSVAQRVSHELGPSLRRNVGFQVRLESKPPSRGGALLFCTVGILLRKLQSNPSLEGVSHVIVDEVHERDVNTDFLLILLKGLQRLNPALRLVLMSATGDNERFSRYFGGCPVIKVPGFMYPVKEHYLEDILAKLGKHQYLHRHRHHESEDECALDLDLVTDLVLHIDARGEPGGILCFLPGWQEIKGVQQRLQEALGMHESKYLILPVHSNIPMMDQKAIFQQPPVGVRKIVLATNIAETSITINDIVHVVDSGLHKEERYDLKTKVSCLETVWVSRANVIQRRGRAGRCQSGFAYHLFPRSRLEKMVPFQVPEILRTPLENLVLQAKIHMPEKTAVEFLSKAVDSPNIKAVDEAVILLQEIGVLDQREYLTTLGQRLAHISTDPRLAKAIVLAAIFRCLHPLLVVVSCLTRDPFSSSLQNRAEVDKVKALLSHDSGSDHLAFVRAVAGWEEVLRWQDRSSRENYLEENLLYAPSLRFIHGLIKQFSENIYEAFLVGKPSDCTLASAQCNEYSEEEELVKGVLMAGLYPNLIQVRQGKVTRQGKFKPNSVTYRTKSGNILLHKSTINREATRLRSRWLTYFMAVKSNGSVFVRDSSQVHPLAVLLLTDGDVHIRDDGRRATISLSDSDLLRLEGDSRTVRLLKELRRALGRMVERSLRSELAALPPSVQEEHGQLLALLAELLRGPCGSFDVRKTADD
An outline of the steps:
as §1

The next data set addresses RPS28 (UniProt P62857). An outline of the steps: as §1
The target of another data set is RPS5 (UniProt P46782). An outline of the steps:
as §1

The next data set addresses PTCD3 (UniProt Q96EY7). An outline of the steps: as §1
The target of the next data set is ZNFX1 (UniProt Q9P2E3). An outline of the steps: as §1
Sequence of ZNFX1 (Q9P2E3 whole entry): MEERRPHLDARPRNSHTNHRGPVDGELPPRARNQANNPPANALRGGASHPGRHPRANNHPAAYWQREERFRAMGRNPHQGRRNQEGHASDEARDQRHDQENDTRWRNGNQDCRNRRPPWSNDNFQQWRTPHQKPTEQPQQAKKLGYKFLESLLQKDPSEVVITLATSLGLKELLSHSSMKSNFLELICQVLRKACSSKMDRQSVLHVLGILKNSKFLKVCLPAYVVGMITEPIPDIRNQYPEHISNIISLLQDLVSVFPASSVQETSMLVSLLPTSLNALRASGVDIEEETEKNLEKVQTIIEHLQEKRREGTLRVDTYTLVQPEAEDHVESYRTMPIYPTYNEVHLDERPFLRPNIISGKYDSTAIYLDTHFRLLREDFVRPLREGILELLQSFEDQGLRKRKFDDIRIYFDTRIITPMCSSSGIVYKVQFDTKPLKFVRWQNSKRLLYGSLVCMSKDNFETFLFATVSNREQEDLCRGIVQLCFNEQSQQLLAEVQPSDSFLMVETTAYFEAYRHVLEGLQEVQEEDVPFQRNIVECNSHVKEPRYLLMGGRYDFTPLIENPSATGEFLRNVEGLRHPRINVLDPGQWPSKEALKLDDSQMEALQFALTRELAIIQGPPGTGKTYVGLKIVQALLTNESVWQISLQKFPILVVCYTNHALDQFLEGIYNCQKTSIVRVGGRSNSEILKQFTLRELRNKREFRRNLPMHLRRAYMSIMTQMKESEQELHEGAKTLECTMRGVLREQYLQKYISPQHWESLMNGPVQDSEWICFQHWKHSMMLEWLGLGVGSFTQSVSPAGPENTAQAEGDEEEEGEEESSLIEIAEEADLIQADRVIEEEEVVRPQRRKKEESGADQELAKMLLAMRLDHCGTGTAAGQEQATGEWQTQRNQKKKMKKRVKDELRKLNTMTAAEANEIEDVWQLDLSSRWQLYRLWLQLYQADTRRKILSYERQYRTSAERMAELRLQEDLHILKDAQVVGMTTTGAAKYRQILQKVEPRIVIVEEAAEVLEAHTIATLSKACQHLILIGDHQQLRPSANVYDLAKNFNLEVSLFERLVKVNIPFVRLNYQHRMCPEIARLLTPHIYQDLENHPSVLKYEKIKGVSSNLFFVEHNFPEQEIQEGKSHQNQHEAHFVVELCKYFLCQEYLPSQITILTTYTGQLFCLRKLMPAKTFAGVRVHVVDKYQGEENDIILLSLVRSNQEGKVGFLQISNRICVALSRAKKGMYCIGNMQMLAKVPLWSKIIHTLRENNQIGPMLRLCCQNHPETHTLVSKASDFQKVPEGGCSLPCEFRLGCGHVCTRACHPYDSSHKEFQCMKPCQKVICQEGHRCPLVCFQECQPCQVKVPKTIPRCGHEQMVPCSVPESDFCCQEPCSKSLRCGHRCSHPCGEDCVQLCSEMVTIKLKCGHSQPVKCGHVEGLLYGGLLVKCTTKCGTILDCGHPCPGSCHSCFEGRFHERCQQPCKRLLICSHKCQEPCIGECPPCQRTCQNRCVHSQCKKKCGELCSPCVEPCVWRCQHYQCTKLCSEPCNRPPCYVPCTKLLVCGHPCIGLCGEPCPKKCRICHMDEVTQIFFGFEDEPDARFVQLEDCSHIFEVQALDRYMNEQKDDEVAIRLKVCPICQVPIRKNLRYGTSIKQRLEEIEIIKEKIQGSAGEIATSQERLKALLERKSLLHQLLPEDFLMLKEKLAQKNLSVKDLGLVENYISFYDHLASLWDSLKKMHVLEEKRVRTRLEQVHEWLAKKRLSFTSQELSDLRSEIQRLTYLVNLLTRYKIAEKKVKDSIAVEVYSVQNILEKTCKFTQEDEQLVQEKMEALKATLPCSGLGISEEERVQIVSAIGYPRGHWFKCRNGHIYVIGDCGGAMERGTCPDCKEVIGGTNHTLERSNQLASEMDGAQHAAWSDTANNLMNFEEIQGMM

What is called EC50 is the midpoint of the concentration-response curve. A low value points to higher potency in that assay. For AAUAAA, the EC50 in the data set with SF3B5 came to 1210 nM; in the data set with SRSF10, 1150 nM; with PUF60 it was 899 nM.

Regarding CUGUCCU, the EC50 with DHX30 came to 113 nM; with RPS28, 212 nM; with RPS5 it was 303 nM.

For the sequence UAUUUAU, the EC50 came out at 50 nM with PTCD3 and 436 nM in the data set with ZNFX1.
